Results published in patent US20250009854A1.

Target: NL63 trimer (human coronavirus NL63)

Substance	IC50
flACE2-Fc-WT (Fc fusion)	52.7 nM
trACE2-Fc-WT (Fc fusion)	100 nM
